Assay results from PMC9482650, “Quantitative fragmentomics allow affinity mapping of interactomes” (Nature Communications, 2022).

T1: PTPN13_1, Q12923
T1 sequence (Q12923 1088-1188, limits assumed, looked up): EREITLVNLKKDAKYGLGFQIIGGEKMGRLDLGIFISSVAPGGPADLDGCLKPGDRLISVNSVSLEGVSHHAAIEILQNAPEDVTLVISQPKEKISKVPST

T2: APBA3_1, O96018
T2 sequence (O96018 389-490, limits assumed, looked up): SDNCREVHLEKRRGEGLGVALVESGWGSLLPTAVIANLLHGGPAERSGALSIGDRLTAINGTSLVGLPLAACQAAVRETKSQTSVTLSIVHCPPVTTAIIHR

T3: SHANK1, Q9Y566
T3 sequence (Q9Y566 658-767, limits assumed, looked up): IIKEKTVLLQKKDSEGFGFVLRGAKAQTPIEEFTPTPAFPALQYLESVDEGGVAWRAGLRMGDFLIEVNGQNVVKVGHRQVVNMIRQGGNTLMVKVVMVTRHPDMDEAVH

T4: MPDZ_12, O75970
T4 sequence (O75970 1857-1958, limits assumed, looked up): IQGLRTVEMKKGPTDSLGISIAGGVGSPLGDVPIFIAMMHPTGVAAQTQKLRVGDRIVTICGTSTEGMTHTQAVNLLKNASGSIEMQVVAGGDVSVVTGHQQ

T5: GRIP1_7, Q9Y3R0
T5 sequence (Q9Y3R0 999-1096, limits assumed, looked up): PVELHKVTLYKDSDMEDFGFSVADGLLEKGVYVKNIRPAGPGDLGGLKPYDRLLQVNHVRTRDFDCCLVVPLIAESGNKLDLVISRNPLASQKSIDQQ

T6: GRIP1_3, Q9Y3R0
T6 sequence (Q9Y3R0 247-346, limits assumed, looked up): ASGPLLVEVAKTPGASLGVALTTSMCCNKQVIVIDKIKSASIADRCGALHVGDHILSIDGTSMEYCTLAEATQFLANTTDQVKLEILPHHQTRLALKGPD

T7: DFNB31_3, Q9P202
T7 sequence (Q9P202 811-907, limits assumed, looked up): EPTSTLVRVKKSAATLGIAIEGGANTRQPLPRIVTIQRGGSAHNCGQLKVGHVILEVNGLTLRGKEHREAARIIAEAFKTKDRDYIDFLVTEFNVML

T8: DFNB31_1, Q9P202
T8 sequence (Q9P202 135-233, limits assumed, looked up): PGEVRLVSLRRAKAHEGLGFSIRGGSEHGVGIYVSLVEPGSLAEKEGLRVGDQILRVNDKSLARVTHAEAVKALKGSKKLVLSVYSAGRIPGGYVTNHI

T9: MPP6, Q9NZW5
T9 sequence (Q9NZW5 125-219, limits assumed, looked up): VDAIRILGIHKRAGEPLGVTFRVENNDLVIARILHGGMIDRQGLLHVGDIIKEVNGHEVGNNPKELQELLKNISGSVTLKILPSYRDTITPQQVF

T10: SYNJ2BP, P57105
T10 sequence (P57105 8-110, limits assumed, looked up): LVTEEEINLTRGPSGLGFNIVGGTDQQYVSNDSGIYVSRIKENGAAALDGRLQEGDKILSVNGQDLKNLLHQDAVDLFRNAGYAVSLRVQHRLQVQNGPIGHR

T11: APBA1_2, Q02410
T11 sequence (Q02410 742-832, limits assumed, looked up): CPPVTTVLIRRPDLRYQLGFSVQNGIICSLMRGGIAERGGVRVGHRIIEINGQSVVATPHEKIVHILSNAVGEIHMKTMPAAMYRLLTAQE

T12: PDZD7_3, Q9H5P4
T12 sequence (Q9H5P4 857-944, limits assumed, looked up): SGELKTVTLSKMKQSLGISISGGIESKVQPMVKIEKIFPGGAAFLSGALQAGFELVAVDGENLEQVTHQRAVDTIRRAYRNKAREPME


target: PDZRN4_1, Q6ZMN7; test: holdup assay; design: key: below the threshold = too weak to quantify, mostly under pKd 3.1 to 4; details: plain residues with an end cap or a label only (N-terminal biotin on a linker: ado-ado)
Sequence (Q6ZMN7 213-318): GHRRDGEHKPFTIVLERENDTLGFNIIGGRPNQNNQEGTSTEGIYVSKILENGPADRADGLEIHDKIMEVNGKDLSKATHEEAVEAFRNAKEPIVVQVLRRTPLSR

Binder | pKd
EAVTVESTSL [SLC22A11, Q9NSA0] | 4.43

target: DLG1_1, Q12959; test: holdup assay; design: key: below the threshold = too weak to quantify, mostly under pKd 3.1 to 4; details: plain residues with an end cap or a label only (N-terminal biotin on a linker: ado-ado)

Binder | pKd
EAVTVESTSL [SLC22A11, Q9NSA0] | below the threshold

target: T1, PTPN13_1, Q12923; test: holdup assay; design: key: below the threshold = too weak to quantify, mostly under pKd 3.1 to 4; details: plain residues with an end cap or a label only (N-terminal biotin on a linker: ado-ado)

Binder | pKd
EAVTVESTSL [SLC22A11, Q9NSA0] | below the threshold

target: AHNAK1, Q09666; test: holdup assay; design: key: below the threshold = too weak to quantify, mostly under pKd 3.1 to 4; details: plain residues with an end cap or a label only (N-terminal biotin on a linker: ado-ado)
Sequence (Q09666 4-100): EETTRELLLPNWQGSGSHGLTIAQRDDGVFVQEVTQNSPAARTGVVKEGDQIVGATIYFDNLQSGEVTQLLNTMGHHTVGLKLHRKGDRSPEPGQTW

Binder | pKd
EAVTVESTSL [SLC22A11, Q9NSA0] | below the threshold

target: T2, APBA3_1, O96018; test: holdup assay; design: key: below the threshold = too weak to quantify, mostly under pKd 3.1 to 4; details: plain residues with an end cap or a label only (N-terminal biotin on a linker: ado-ado)

Binder | pKd
EAVTVESTSL [SLC22A11, Q9NSA0] | below the threshold

target: Inadl_8, Q8NI35; test: holdup assay; design: key: below the threshold = too weak to quantify, mostly under pKd 3.1 to 4; details: plain residues with an end cap or a label only (N-terminal biotin on a linker: ado-ado)
Sequence (Q8NI35 1425-1530): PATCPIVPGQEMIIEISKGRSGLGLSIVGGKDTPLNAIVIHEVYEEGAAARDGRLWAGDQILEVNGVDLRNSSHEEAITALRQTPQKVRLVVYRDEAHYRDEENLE

Binder | pKd
EAVTVESTSL [SLC22A11, Q9NSA0] | below the threshold

target: T3, SHANK1, Q9Y566; test: holdup assay; design: key: below the threshold = too weak to quantify, mostly under pKd 3.1 to 4; details: plain residues with an end cap or a label only (N-terminal biotin on a linker: ado-ado)

Binder | pKd
EAVTVESTSL [SLC22A11, Q9NSA0] | 5.68

target: DLG4_2, P78352; test: holdup assay; design: key: below the threshold = too weak to quantify, mostly under pKd 3.1 to 4; details: plain residues with an end cap or a label only (N-terminal biotin on a linker: ado-ado)
Sequence (P78352 155-259): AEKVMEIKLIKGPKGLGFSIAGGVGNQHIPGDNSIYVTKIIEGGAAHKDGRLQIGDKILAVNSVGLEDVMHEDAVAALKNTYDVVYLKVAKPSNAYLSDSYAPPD

Binder | pKd
EAVTVESTSL [SLC22A11, Q9NSA0] | 3.58

target: DLG4_3, P78352; test: holdup assay; design: key: below the threshold = too weak to quantify, mostly under pKd 3.1 to 4; details: plain residues with an end cap or a label only (N-terminal biotin on a linker: ado-ado)
Sequence (P78352 306-403): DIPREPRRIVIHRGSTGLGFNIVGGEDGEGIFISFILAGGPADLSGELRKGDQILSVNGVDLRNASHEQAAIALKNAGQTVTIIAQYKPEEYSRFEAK

Binder | pKd
EAVTVESTSL [SLC22A11, Q9NSA0] | below the threshold

target: GRID2IP_1, A4D2P6; test: holdup assay; design: key: below the threshold = too weak to quantify, mostly under pKd 3.1 to 4; details: plain residues with an end cap or a label only (N-terminal biotin on a linker: ado-ado)
Sequence (A4D2P6 1-87): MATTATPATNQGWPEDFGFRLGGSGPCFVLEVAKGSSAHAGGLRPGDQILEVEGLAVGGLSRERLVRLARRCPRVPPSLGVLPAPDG

Binder | pKd
EAVTVESTSL [SLC22A11, Q9NSA0] | below the threshold

target: TJP1_3, Q07157; test: holdup assay; design: key: below the threshold = too weak to quantify, mostly under pKd 3.1 to 4; details: plain residues with an end cap or a label only (N-terminal biotin on a linker: ado-ado)
Sequence (Q07157 416-512): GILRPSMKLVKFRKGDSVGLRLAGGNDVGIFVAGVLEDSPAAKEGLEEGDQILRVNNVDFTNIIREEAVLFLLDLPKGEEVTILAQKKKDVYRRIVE

Binder | pKd
EAVTVESTSL [SLC22A11, Q9NSA0] | below the threshold

target: MAGI1_2, Q96QZ7; test: holdup assay; design: key: below the threshold = too weak to quantify, mostly under pKd 3.1 to 4; details: plain residues with an end cap or a label only (N-terminal biotin on a linker: ado-ado)
Sequence (Q96QZ7 456-580): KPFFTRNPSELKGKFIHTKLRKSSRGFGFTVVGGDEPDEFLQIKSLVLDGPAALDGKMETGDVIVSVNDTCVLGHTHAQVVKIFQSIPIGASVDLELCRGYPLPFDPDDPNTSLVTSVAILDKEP

Binder | pKd
EAVTVESTSL [SLC22A11, Q9NSA0] | below the threshold

target: GRID2IP_2, A4D2P6; test: holdup assay; design: key: below the threshold = too weak to quantify, mostly under pKd 3.1 to 4; details: plain residues with an end cap or a label only (N-terminal biotin on a linker: ado-ado)
Sequence (A4D2P6 272-370): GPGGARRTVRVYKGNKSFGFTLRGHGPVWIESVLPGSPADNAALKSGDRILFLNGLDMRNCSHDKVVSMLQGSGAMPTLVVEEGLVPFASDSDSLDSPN

Binder | pKd
EAVTVESTSL [SLC22A11, Q9NSA0] | 5.32

target: FRMPD2_3, Q68DX3; test: holdup assay; design: key: below the threshold = too weak to quantify, mostly under pKd 3.1 to 4; details: plain residues with an end cap or a label only (N-terminal biotin on a linker: ado-ado)
Sequence (Q68DX3 1073-1166): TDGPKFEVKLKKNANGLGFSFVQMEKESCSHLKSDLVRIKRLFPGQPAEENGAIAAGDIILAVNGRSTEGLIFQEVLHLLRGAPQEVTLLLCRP

Binder | pKd
EAVTVESTSL [SLC22A11, Q9NSA0] | below the threshold

target: DLG5_1, Q8TDM6; test: holdup assay; design: key: below the threshold = too weak to quantify, mostly under pKd 3.1 to 4; details: plain residues with an end cap or a label only (N-terminal biotin on a linker: ado-ado)
Sequence (Q8TDM6 617-713): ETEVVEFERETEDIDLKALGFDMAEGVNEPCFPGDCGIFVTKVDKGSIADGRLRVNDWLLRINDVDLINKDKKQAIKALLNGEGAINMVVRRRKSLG

Binder | pKd
EAVTVESTSL [SLC22A11, Q9NSA0] | below the threshold

target: T4, MPDZ_12, O75970; test: holdup assay; design: key: below the threshold = too weak to quantify, mostly under pKd 3.1 to 4; details: plain residues with an end cap or a label only (N-terminal biotin on a linker: ado-ado)

Binder | pKd
EAVTVESTSL [SLC22A11, Q9NSA0] | below the threshold

target: T5, GRIP1_7, Q9Y3R0; test: holdup assay; design: key: below the threshold = too weak to quantify, mostly under pKd 3.1 to 4; details: plain residues with an end cap or a label only (N-terminal biotin on a linker: ado-ado)

Binder | pKd
EAVTVESTSL [SLC22A11, Q9NSA0] | below the threshold

target: NHERF2_2, Q15599; test: holdup assay; design: key: below the threshold = too weak to quantify, mostly under pKd 3.1 to 4; details: plain residues with an end cap or a label only (N-terminal biotin on a linker: ado-ado)
Sequence (Q15599 142-238): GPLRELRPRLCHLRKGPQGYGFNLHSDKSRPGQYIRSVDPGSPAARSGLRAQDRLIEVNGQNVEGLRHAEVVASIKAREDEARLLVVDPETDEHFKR

Binder | pKd
EAVTVESTSL [SLC22A11, Q9NSA0] | 5.45

target: T6, GRIP1_3, Q9Y3R0; test: holdup assay; design: key: below the threshold = too weak to quantify, mostly under pKd 3.1 to 4; details: plain residues with an end cap or a label only (N-terminal biotin on a linker: ado-ado)

Binder | pKd
EAVTVESTSL [SLC22A11, Q9NSA0] | below the threshold

target: T7, DFNB31_3, Q9P202; test: holdup assay; design: key: below the threshold = too weak to quantify, mostly under pKd 3.1 to 4; details: plain residues with an end cap or a label only (N-terminal biotin on a linker: ado-ado)

Binder | pKd
EAVTVESTSL [SLC22A11, Q9NSA0] | below the threshold

target: T8, DFNB31_1, Q9P202; test: holdup assay; design: key: below the threshold = too weak to quantify, mostly under pKd 3.1 to 4; details: plain residues with an end cap or a label only (N-terminal biotin on a linker: ado-ado)

Binder | pKd
EAVTVESTSL [SLC22A11, Q9NSA0] | 3.98

target: T9, MPP6, Q9NZW5; test: holdup assay; design: key: below the threshold = too weak to quantify, mostly under pKd 3.1 to 4; details: plain residues with an end cap or a label only (N-terminal biotin on a linker: ado-ado)

Binder | pKd
EAVTVESTSL [SLC22A11, Q9NSA0] | 3.95

target: T10, SYNJ2BP, P57105; test: holdup assay; design: key: below the threshold = too weak to quantify, mostly under pKd 3.1 to 4; details: plain residues with an end cap or a label only (N-terminal biotin on a linker: ado-ado)

Binder | pKd
EAVTVESTSL [SLC22A11, Q9NSA0] | 4.15

target: MAGI1_1, Q96QZ7; test: holdup assay; design: key: below the threshold = too weak to quantify, mostly under pKd 3.1 to 4; details: plain residues with an end cap or a label only (N-terminal biotin on a linker: ado-ado)
Sequence (Q96QZ7 1-106): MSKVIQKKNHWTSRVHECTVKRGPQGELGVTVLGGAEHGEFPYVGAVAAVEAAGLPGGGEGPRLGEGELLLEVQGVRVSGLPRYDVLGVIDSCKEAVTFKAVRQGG

Binder | pKd
EAVTVESTSL [SLC22A11, Q9NSA0] | below the threshold

target: T11, APBA1_2, Q02410; test: holdup assay; design: key: below the threshold = too weak to quantify, mostly under pKd 3.1 to 4; details: plain residues with an end cap or a label only (N-terminal biotin on a linker: ado-ado)

Binder | pKd
EAVTVESTSL [SLC22A11, Q9NSA0] | 3.86

target: T12, PDZD7_3, Q9H5P4; test: holdup assay; design: key: below the threshold = too weak to quantify, mostly under pKd 3.1 to 4; details: plain residues with an end cap or a label only (N-terminal biotin on a linker: ado-ado)

Binder | pKd
EAVTVESTSL [SLC22A11, Q9NSA0] | 4.8
